{"source": "paper PMC7495481", "about": "“Sequence specificity analysis of the SETD2 protein lysine methyltransferase and discovery of a SETD2 super-substrate” (Communications Biology, 2020)", "molecules": {"B1": {"name": "STAT1: known non-histone substrate of SETD2, methylated at K525 (protein, UniProt P42224 2-750, looked up)", "Signal transducer and …": "SQWYELQQLDSKFLEQVHQLYDDSFPMEIRQYLAQWLEKQDWEHAANDVSFATIRFHDLLSQLDDQYSRFSLENNFLLQHNIRKSKRNLQDNFQEDPIQMSMIIYSCLKEERKILENAQRFNQAQSGNIQSTVMLDKQKELDSKVRNVKDKVMCIEHEIKSLEDLQDEYDFKCKTLQNREHETNGVAKSDQKQEQLLLKKMYLMLDNKRKEVVHKIIELLNVTELTQNALINDELVEWKRRQQSACIGGPPNACLDQLQNWFTIVAESLQQVRQQLKKLEELEQKYTYEHDPITKNKQVLWDRTFSLFQQLIQSSFVVERQPCMPTHPQRPLVLKTGVQFTVKLRLLVKLQELNYNLKVKVLFDKDVNERNTVKGFRKFNILGTHTKVMNMEESTNGSLAAEFRHLQLKEQKNAGTRTNEGPLIVTEELHSLSFETQLCQPGLVIDLETTSLPVVVISNVSQLPSGWASILWYNMLVAEPRNLSFFLTPPCARWAQLSEVLSWQFSSVTKRGLNVDQLNMLGEKLLGPNASPDGLIPWTRFCKENINDKNFPFWLWIESILELIKKHLLPLWNDGCIMGFISKERERALLKDQQPGTFLLRFSESSREGAITFTWVERSQNGGEPDFHAVEPYTKKELSAVTFPDIIRNYKVMAAENIPENPLKYLYPNIDKDHAFGKYYSRPKEAPEPMELDGPKGTGYIKTELISVSEVHPSRLQTTDNLLPMSPEEFDEVSRIVGSVEFDSMMNTV"}}, "key": {"[1]": {"molecular_target": "T1, SETD2 (Homo sapiens, UniProt Q9BYW2)", "T1 construct": "SETD2 catalytic SET domain (amino acids 1347–1711, UniProt No: Q9BYW2); made in house; host or cells: E. coli", "T1 sequence (Q9BYW2 1347-1711)": "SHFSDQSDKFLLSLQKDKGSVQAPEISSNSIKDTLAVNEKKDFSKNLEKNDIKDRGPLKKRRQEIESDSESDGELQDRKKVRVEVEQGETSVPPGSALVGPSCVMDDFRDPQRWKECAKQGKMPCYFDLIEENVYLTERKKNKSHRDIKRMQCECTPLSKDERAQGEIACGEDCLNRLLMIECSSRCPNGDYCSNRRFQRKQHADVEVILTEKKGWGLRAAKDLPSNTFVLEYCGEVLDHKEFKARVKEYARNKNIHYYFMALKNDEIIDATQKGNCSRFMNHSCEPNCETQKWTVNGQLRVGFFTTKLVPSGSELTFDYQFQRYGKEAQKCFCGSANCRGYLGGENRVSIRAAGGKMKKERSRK", "details": "H3K36 peptide, previously determined under the same conditions; ref [30]; cited from earlier work"}, "[2]": {"molecular_target": "T1, SETD2", "assay": "Western Blot detection of GST fusion methylation by SETD2 with H3K36me3 antibody", "type": "biochemical", "details": "incubated with SETD2 and unlabeled AdoMet", "method": "Supplementary Fig. 9: Control experiments related to Fig. 6c. a Validation of the detection of ssK36-GST methylation by the α-H3K36me3 antibody. The purified ssK36-GST and H3K36-GST substrates were incubated with SETD2 and unlabeled AdoMet. Afterwards, the proteins were separated by SDS-PAGE and blotted. Western Blot […]\nof H3K36-GST methylation by SETD2 observed in Fig. 6a and 6b. Equal loading of the GST-tagged proteins is shown in the Coomassie BB stain of a parallel gel, equal loading of SETD2 is shown in the Ponceau S stain of the Western Blot membrane. b YFP-tagged ssK36 and H3K36 substrates were transfected into HEK293 cells together with DsRed-tagged SETD2 or DsRed empty vector (EV). The expression levels of DsRed-SETD2 and DsRed from EV were determined […]\nExample of the FACS primary data for DsRed expression. d Average fraction of DsRed positive cells in three independent experiments normalized to DsRed-SETD2 + YFP-ssK36. EV, empty […]\n(1 picture or pasted object on this page, not shown here)"}, "[3]": {"molecular_target": "T1, SETD2", "assay": "Protein methylation assay (non-histone proteins, GST fusions, nucleosomes, H3.1)", "type": "biochemical", "details": "equal amounts; 6 µM SETD2, 0.76 µM AdoMet, 3 h, 25 °C; autoradiography", "source_text": "The 9 new putative non-histone substrates of SETD2 were cloned into a pGEX-6p2 bacterial expression vector for protein expression. Six of them could be expressed and purified through glutathione sepharose beads (Table 1). For comparison, the super-substrate sequence was cloned with a […] GST-tag (ssK36-GST) to mimic the natural setting of the H3K36 site in the N-terminal tail of histone 3. Similar amounts of the purified non-histone substrate proteins and the ssK36-GST protein were loaded on an SDS-gel and stained with Coomassie BB (Supplementary Fig. 6a). Afterward protein methylation reactions were conducted using radioactively labeled AdoMet and the radioactive signal of the methyl group transfer was detected by autoradiography (Supplementary Fig. 6b). […] Next, we aimed to confirm the FBN1 methylation at the predicated target lysine K666. For this, a K666R mutation was introduced and the wildtype and mutant FBN1 proteins were purified by affinity chromatography. […]\nProtein methylation reactions were performed in 40 µl methylation buffer containing 0.76 µM radioactive labeled AdoMet (PerkinElmer), approximately 20 µg of substrate protein and 6 µM SETD2 enzyme (if not otherwise indicated) for 3 h at 25 °C. […] The radioactive methylation signal was detected by a hyperfilm^TM high performance autoradiography film (GE Healthcare) at −80 °C in the dark. […]"}, "[4]": {"molecular_target": "T1, SETD2", "assay": "Peptide SPOT array methylation of reported SETD2 substrates", "type": "biochemical", "details": "SPOT array on cellulose membrane; 0.76 µM radioactive AdoMet, 3–6 µM SETD2, 60 min, pH 9; autoradiography", "method": "Next, the SETD2 activity was tested on peptide SPOT arrays containing fifteen amino acid long peptides immobilized on a cellulose membrane. As reported SETD2 substrates, the H3K36 (29–43), α -tubulin (33–47) and STAT1 (518–532) peptides (with the target lysine centered in each case) were included, and peptides with the corresponding target lysine mutated to alanine were used as negative controls. The peptide array was incubated in methylation buffer supplemented with SETD2 and radioactively labeled AdoMet. […] Methylation of the previously reported non-histone substrates α -tubulin and STAT1 was not detectable at the peptide level and, therefore, they were excluded from further investigation.\nPeptide arrays containing fifteen amino acid long peptides were synthesized using the SPOT synthesis method[48] with an Autospot peptide array synthesizer (Intavis AG, Köln, Germany). After synthesis, the obtained membranes were pre-incubated in methylation buffer (20 mM Tris/HCl pH 9, 0.01% Triton X-100, 10 mM DTT, 1.5 mM MgCl2) for 5 min on a shaker. Thereafter, the membranes were incubated in methylation buffer supplemented with 0.76 µM radioactively labeled AdoMet (PerkinElmer) and 3–6 µM SETD2 enzyme for 60 min on a shaker. After methylation, the membranes were washed 5 times for 5 min in wash buffer (100 mM NH4HCO3, 1% SDS) and incubated in amplify NAMP100V (GE Healthcare) for 5 min. This was followed by the exposure of the membranes to a hyperfilm^TM high performance autoradiography (GE Healthcare) film at −80 °C in the dark. The films were developed with an Optimax Typ TR machine after different exposue times. For quantification the signal intensities were measured with the Phoretix^TM software and analyzed with Microsoft Excel.\nSupplementary Fig. 1: SETD2 protein and catalytic activity. a Purified His6-tagged SETD2 SET domain (1347-1711) was separated on an SDS-gel and […]\nstained with Coomassie BB. […]\ntubulin (33-47), STAT1 (518-532) and their corresponding target lysine to alanine mutant peptides were synthesized on a cellulose membrane. The membrane was incubated in methylation buffer supplemented with radioactively labeled AdoMet and SETD2. The signal of the transferred radioactive methyl groups was visualized by autoradiography."}, "[5]": {"molecular_target": "T1, SETD2", "details": "ref [18],[19]; cited from earlier work", "source_text": "SETD2 is a PKMT initially in 2005 identified to methylate H3K36[8]. So far, lysine 36 in H3 was still the best substrate known for this enzyme at the peptide level. At the protein level, H3 methylation by SETD2 is weak, but it is strongly stimulated in the context of a nucleosome as shown here by us and previously by others. […] In thi ..."}}, "note": "Ends that are not written are not given here."}
{"molecule": "H3K36 peptide: H3K36 (27–43) peptide purchased from Intavis AG (KSAPATGGVKKPHRYRP; UniProt P68431 28-44, looked up, fragment)", "values": [{"measurement": "Km", "setting": "[1]", "result": 65, "unit": "µM"}]}
{"molecule": "H3K36-GST: H3K36 (29–43) sequence cloned with C-terminal GST-tag (APATGGVKKPHRYRP; also: C-terminal GST tag fusion; UniProt P68431 30-44, looked up, fragment)", "values": [{"measurement": "H3K36me3 antibody Western Blot signal", "setting": "[2]", "result": "very weak signal"}, {"measurement": "methylation of GST fusion proteins (in words)", "setting": "[3]", "result": "no signal was detected"}]}
{"molecule": "B1", "values": [{"measurement": "peptide spot methylation signal", "setting": "[4]", "result": "did not show a detectable peptide methylation signal"}, {"measurement": "reported methylation by SETD2 compared with H3K36", "setting": "[5]", "result": "weaker than H3K36"}]}
